From US20150216891A1 (INSTITUT NATIONAL DE LA SANTE ET DE LA RECHERCHE MEDICALE …, published 2015)

Biological target: T1, Translationally-Controlled Tumor Protein (TCTP) (human, UniProt P13693 1-172)
T1 construct: Endogenous TCTP in LNCaP cell lysates, immunoprecipitated with rabbit anti-TCTP antibody (Abcam); also called translationally-controlled tumour protein
T1 sequence: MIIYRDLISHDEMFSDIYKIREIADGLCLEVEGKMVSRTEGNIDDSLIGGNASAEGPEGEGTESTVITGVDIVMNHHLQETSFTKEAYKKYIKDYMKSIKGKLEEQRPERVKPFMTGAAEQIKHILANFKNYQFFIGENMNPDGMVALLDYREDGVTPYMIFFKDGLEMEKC
Assay: not named at this place (co-immunoprecipitation of Example 12)

B1: Hsp27 C1 deletion mutant (amino acids 93 to 205 of SEQ ID NO: 16), histidine-tagged (other, not shown: small tags and cut ends)
chain: DRWRVSLDVNHFAPDERTVKTKDGVVEISGKHEELQDEHGYISRCFTRKYTLPPGVDPTQVSSSLSPEGTLTVEAPMPKLATQSNEITIPVTFESRAQLGGPEAAKSDETAAK
notes: Transiently expressed in LNCaP cells
B1: binds.
